Results from article PMC11136987 (2024).

Key:
[1] = target: recombinant full-length ASC (UniProt Q9ULZ3 1-195); assay: BLI
[2] = target: recombinant full-length HAX-1 (UniProt O00165 1-279); assay: BLI
recombinant full-length HAX-1, sequence (O00165 whole entry): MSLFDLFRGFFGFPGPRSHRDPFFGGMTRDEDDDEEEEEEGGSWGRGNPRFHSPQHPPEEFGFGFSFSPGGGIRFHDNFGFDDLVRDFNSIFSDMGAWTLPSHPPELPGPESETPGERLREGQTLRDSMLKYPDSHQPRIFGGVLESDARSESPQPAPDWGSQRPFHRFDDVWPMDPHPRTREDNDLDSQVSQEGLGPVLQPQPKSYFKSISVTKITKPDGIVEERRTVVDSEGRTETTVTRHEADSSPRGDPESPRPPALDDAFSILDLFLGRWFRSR

recombinant full-length ASC, sequence (Q9ULZ3 whole entry): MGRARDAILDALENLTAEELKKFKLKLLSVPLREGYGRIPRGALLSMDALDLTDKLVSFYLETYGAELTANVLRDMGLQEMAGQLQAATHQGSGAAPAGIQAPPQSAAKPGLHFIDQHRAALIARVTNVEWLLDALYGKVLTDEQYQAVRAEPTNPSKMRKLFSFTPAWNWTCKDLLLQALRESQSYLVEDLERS

- Kd [1]: 7.33 nM
- Kd [2]: 3.38 nM
B1: recombinant partial NLRP3 1-536aa (domain or fragment)
chain: MKMASTRCKLARYLEDLEDVDLKKFKMHLEDYPPQKGCIPLPRGQTEKADHVDLATLMIDFNGEEKAWAMAVWIFAAINRRDLYEKAKRDEPKWGSDNARVSNPTVICQEDSIEEEWMGLLEYLSRISICKMKKDYRKKYRKYVRSRFQCIEDRNARLGESVSLNKRYTRLRLIKEHRSQQEREQELLAIGKTKTCESPVSPIKMELLFDPDDEHSEPVHTVVFQGAAGIGKTILARKMMLDWASGTLYQDRFDYLFYIHCREVSLVTQRSLGDLIMSCCPDPNPPIHKIVRKPSRILFLMDGFDELQGAFDEHIGPLCTDWQKAERGDILLSSLIRKKLLPEASLLITTRPVALEKLQHLLDHPRHVEILGFSEAKRKEYFFKYFSDEAQARAAFSLIQENEVLFTMCFIPLVCWIVCTGLKQQMESGKSLAQTSKTTTAVYVFFLSSLLQPRGGSQEHGLCAHLWGLCSLAADGIWNQKILFEESDLRNHGLQKADVSAFLRMNLFQKEVDCEKFYSFIHMTFQEFFAAMYYLL
modifications: biotinylated (sites not given)
